Experiments:
human UCN3 peptide = target: T1, human UCN3 peptide (human, UniProt Q969E3 120-157, not fully specified; biotin at N- or C-terminus in the ELISA); experiment: ELISA, biotinylated hUCN3 on streptavidin plates
T1 construct: also called hUCN3; hUCN3 (NT Biotin)
T1 peptide (looked up): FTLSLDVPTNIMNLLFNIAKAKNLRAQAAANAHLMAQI
Description: (§1) Streptavidin (Thermo, Cat: 21125) was diluted in PBS with a concentration of 2 μg/mL. 100 μL of diluted streptavidin was added per well to ELISA microplates, and the plates were incubated overnight at 4° C. Plates were blocked with ELISA blocking solution (containing 2% w/v BSA, 0.05% (v/v) Tween-20, pH 7.4 PBS buffer) at 37° C. for 1 hour, and then incubated with either 1 μg/mL hUCN1 (NT Biotin), hUCN1 (CT Biotin), hUCN2 (NT Biotin), hUCN2 (CT Biotin), hUCN3 (NT Biotin), or hUCN3 (CT Biotin) for 1 hour at 37° C. […] 100 μl of TMB Substrate (Biopanda, Cat: TMB-S-003) was added, and the plates were incubated at room temperature for 15 minutes. 100 μL of ELISA stopping solution (Solarbio, Cat #: C1058) was then added to terminate the reaction, and the OD450 nm was determined by an ELISA plate reader (Molecular Devices, Spectra max 384 plus).

human UCN2 peptide = target: T2, human UCN2 peptide (human, UniProt Q96RP3 72-109, limits assumed, not fully specified; biotin at N- or C-terminus in the ELISA); experiment: ELISA, biotinylated hUCN2 on streptavidin plates
T2 construct: also called hUCN2; hUCN2 (NT Biotin)
T2 peptide (looked up): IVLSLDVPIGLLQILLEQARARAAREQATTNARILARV
Description: as §1

human UCN1 peptide = target: T3, human UCN1 peptide (human, UniProt P55089 83-122, not fully specified; biotin at N- or C-terminus in the ELISA); experiment: ELISA, biotinylated hUCN1 on streptavidin plates
T3 construct: also called hUCN1; hUCN1 (NT Biotin)
T3 peptide (looked up): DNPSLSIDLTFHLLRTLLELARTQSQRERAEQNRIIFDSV

Measured: binding result

B1: PR302334-26 (antibody, human IgG1, kappa, V domains shown)
VH: EVQLVESGGGLVQPGGSLRLSCAASGFTFSTYAMSWVRQAPGKGLEWVASIRSGGTTYYPDSVKGRFTISRDNSKNSLYLQMNSLRAEDTAVYYCTRGIDWGQGTTVTVSS
VL: DIVMTQSPDSLAVSLGERATINCKASQSVNNDVAWYQQKPGQPPRLLIYYASNRYTGVPDRFSGSGSGTDFTLTISSLQAEDLAVYFCQQDYSSWTFGGGTKVEIKR
notes: Humanized variant of PR302334
no binding (tested: 100 nM): human UCN3 peptide | human UCN2 peptide | human UCN1 peptide
